Source: patent US20240400693A1

Key:
Experiment in all cases: cell-based or functional assay
[1] = molecular target: HLA-DQ2.5 on IHW09023 cells loaded with 33mer gliadin peptide (human; wheat)
[2] = molecular target: HLA-DQ2.5 on IHW09023 cells loaded with gamma 3 gliadin peptide (human; wheat)
[3] = molecular target: HLA-DQ2.5 on IHW09023 cells loaded with omega1/2 gliadin peptide (human; wheat)
[4] = molecular target: HLA-DQ2.5 on IHW09023 cells loaded with gamma 4d gliadin peptide (human; wheat)
[5] = molecular target: HLA-DQ2.5 on IHW09023 cells loaded with gamma 2 gliadin peptide (human; wheat)
[6] = molecular target: HLA-DQ2.5 on IHW09023 cells loaded with gamma 4a gliadin peptide (human; wheat)
[7] = molecular target: HLA-DQ2.5 on IHW09023 cells loaded with BC hordein peptide (human; barley)
[8] = molecular target: HLA-DQ2.5 on IHW09023 cells loaded with gamma 1 gliadin peptide (human; wheat)

B1: DQN034425 (antibody, V domains shown)
VH: QVQLVESGGGVVQPGRSLRLSCAASGFTFSSSYWMCWVRQAPGQGLEWMGCVYGGSDTTYYASWTKGRFTISRDNSKNTLYLQMNSLRAEDTAVYYCARDPLNYYYYGELNLWGQGTLVTVSS
VL: DIQMTQSPSSLSASVGDRVTITCQATENIYSGLAWYQQKPGKAPKLLIYYVSTLASGIPARFSGSGSGTDFTLTISSLEPEDFAVYYCQTYHDISNVTFGQGTKVEIK
- IC50 (ng/mL), α1a gliadin TCR, 250 nM 33mer gliadin [1]: 10.6 ng/mL
- IC50 (ng/mL), α1b gliadin TCR, 250 nM 33mer gliadin [1]: 46.4 ng/mL
- IC50 (ng/mL), α2 gliadin TCR, 250 nM 33mer gliadin [1]: 1.75 ng/mL
- IC50 (ng/mL), γ3 gliadin TCR, 100 µM γ3 gliadin [2]: 3100 ng/mL
- IC50 (ng/mL), ω1 gliadin TCR, 25 µM ω1/2 gliadin [3]: 3.12 ng/mL
- IC50 (ng/mL), ω2 gliadin TCR, 250 nM ω1/2 gliadin [3]: > 500 ng/mL
- IC50 (ng/mL), γ4d gliadin TCR, 100 µM γ4d gliadin [4]: > 20000 ng/mL
- IC50 (ng/mL), γ2 gliadin TCR, 250 nM γ2 gliadin [5]: > 20000 ng/mL
- IC50 (ng/mL), γ4a gliadin TCR, 25 µM γ4a gliadin [6]: > 20000 ng/mL
- IC50 (ng/mL), BC hordein TCR, 250 nM BC hordein [7]: > 20000 ng/mL
- IC50 (ng/mL), γ1 gliadin TCR, 250 nM γ1 gliadin [8]: > 20000 ng/mL
